The target of experiment [1] is T1, PDL1 on A-375 melanoma cells, HCT-15 colorectal cancer cells and A549 lung cancer cells (UniProt Q9NZQ7 19-290, limits assumed).
T1 construct: whole, on cells
Description: flow cytometry, A549 cells, MFI [panel B]. A digest of the protocol:
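Cells were blocked with goat serum at 4° C for 30 min, then incubated with serially diluted bispecific antibodies or hIgG1LALA control at 4° C for 30 min. Bound antibody was detected with Alexa-647 anti-human IgG (4° C, 30 min, dark) and read by flow cytometry.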
(A flow cytometer gives signals particle by particle.)

Experiment [2] concerns the target T2, PDL1 protein (UniProt Q9NZQ7 19-238).
T2 construct: Bought recombinant protein
The experiment is described as follows: ELISA, coated PDL1 protein, OD450 [panels A, B]. As to the method:
(3) PDL1 protein (purchased from Acro) was diluted to 2 μg/ml with PBS buffer, added to a 96-well plate at a volume of 100 μL/well, and placed at 4° C. overnight. The PBS buffer in the 96-well plate was aspirated, and the plate was washed 6 times with PBST (pH 7.2 PBS containing 0.10% Tween 20) buffer. Then, PBS/10% BSA was added at 200 μL/well and incubated at 37° C. for 2 h for blocking. The blocking solution was removed, and the plate was washed six times with PBST. Then, the to-be-tested bispecific antibodies serially diluted with PBST/0.05% BSA, Cross3×PDL1, Cross303×PDL1, Cross307×PDL1, Cross308×PDL1, Cross309×PDL1, Cross310×PDL1, Cross311×PDL1, Cross312×PDL1, Cross313×PDL1, Cross314×PDL1, Cross316×PDL1, Cross317×PDL1, Cross318×PDL1, Cross323×PDL1, Cross325×PDL1, Cross326×PDL1, and control IgG1LALA (purchased from Bio-Tech) were added at 100 μL/well, and incubated at 37° C. for 1 h. The reaction system was removed, and the plate was washed 6 times with PBST. Then, the cells were incubated at 37° C. for 1 h with HRP (horseradish peroxidase)-labeled anti-human secondary antibody (Fab specific) (purchased from Sigma) serially diluted with PBST/0.05% BSA at 100 μL/well. After the plate was washed six times with PBST, TMB (tetramethylbenzidine) was added at 80 μL/well and incubated at room temperature for 3 min. […] The absorbance was read at 450 nm using a microplate reader.

The term EC50 (read off the curve) denotes the midpoint of the concentration-response curve. Low readings indicate higher potency in that assay, high ones lower potency in that assay.

T1 sequence (Q9NZQ7 19-290 limits assumed): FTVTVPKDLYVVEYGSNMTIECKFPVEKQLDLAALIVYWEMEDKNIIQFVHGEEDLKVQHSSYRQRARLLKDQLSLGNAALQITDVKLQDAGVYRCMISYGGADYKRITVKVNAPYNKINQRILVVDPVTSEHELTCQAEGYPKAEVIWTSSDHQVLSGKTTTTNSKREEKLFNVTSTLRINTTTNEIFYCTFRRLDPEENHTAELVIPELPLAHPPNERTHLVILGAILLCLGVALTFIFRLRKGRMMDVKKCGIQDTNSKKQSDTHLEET
T2 sequence (Q9NZQ7 19-238 limits assumed): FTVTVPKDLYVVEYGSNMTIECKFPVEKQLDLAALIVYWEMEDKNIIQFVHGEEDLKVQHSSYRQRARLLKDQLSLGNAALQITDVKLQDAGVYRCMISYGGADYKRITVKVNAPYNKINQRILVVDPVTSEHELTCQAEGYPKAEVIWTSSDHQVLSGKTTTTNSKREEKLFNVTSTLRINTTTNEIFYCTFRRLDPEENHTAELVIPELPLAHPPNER

B1: Cross3×PDL1 (bispecific antibody, human IgG1, kappa, L234A L235A)
scFv: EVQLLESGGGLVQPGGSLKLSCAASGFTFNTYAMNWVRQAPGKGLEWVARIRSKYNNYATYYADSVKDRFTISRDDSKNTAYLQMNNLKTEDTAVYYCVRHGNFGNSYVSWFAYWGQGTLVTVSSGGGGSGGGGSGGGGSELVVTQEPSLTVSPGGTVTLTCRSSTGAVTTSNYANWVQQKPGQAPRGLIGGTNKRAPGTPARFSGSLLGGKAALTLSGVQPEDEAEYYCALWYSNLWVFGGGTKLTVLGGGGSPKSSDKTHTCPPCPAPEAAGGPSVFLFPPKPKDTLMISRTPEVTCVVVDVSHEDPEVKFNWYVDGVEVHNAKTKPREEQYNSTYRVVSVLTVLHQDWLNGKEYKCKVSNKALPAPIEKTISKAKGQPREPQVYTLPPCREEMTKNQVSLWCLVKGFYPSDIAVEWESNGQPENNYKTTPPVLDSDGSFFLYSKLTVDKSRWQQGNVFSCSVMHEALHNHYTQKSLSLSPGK
heavy: QVQLVQSGAEVKKPGASVKVSCKASGYSFTGYYMHWVRQAPGQGLEWIGRINPYNGATTYSQNFKDRATMTVDTSISTAYMELSRLRSDDTAVYYCVPTGMGYFLMDYWGQGTLVTVSSASTKGPSVFPLAPSSKSTSGGTAALGCLVKDYFPEPVTVSWNSGALTSGVHTFPAVLQSSGLYSLSSVVTVPSSSLGTQTYICNVNHKPSNTKVDKKVEPKSCDKTHTCPPCPAPEAAGGPSVFLFPPKPKDTLMISRTPEVTCVVVDVSHEDPEVKFNWYVDGVEVHNAKTKPREEQYNSTYRVVSVLTVLHQDWLNGKEYKCKVSNKALPAPIEKTISKAKGQPREPQVCTLPPSREEMTKNQVSLSCAVKGFYPSDIAVEWESNGQPENNYKTTPPVLDSDGSFFLVSKLTVDKSRWQQGNVFSCSVMHEALHNHYTQKSLSLSPGK
light: DIQLTQSPSFLSASVGDRVTITCKASQDVGSAVVWYQQKPGKAPKLLIYWASTRHTGVPSRFSGSGSGTEFTLTISSLQPEDFATYFCQQFTSYPTFGQGTKLEIKRTVAAPSVFIFPPSDEQLKSGTASVVCLLNNFYPREAKVQWKVDNALQSGNSQESVTEQDSKDSTYSLSSTLTLSKADYEKHKVYACEVTHQGLSSPVTKSFNRGEC
notes: also called parent Cross3×PDL1 bispecific antibody
Regarding B1, the half-maximal effective concentration (EC50 (read off the curve)) in experiment [1] was approximately 1 µg/mL; in experiment [2], approximately 0.2 µg/mL.

The values are drawn from patent publication US20260125472A1 (HEFEI TG IMMUNOPHARMA, published 2026).
